Experimental data as given in article PMC6224091.

B1: V5-Par6A (wild type) [not stated] / YFP-Tuba [not stated] (parent)
chain 1: MARPQRTPARSPDSIVEVKSKFDAEFRRFALPRASVSGFQEFSRLLRAVHQIPGLDVLLGYTDAHGDLLPLTNDDSLHRALASGPPPLRLLVQKRAEADSSGLAFASNSLQRRKKGLLLRPVAPLRTRPPLLISLPQDFRQVSSVIDVDLLPETHRRVRLHKHGSDRPLGFYIRDGMSVRVAPQGLERVPGIFISRLVRGGLAESTGLLAVSDEILEVNGIEVAGKTLDQVTDMMVANSHNLIVTVKPANQRNNVVRGASGRLTGPPSAGPGPAEPDSDDDSSDLVIENRQPPSSNGLSQGPPCWDLHPGCRHPGTRSSLPSLDDQEQASSGWGSRIRGDGSGFSL
chain 2: MEAGSVVRAIFDFCPSVSEELPLFVGDIIEVLAVVDEFWLLGKKEDVTGQFPSSFVEIVTIPSLKEGERLFVCICEFTSQELDNLPLHRGDLVILDGIPTAGWLQGRSCWGARGFFPSSCVRELCLSSQSRQWHSQSALFQIPEYSMGQARALMGLSAQLDEELDFREGDVITIIGVPEPGWFEGELEGRRGIFPEGFVELLGPLRTVDESVSSGNQDDCIVNGEVDTPVGEEEIGPDEDEEEPGTYGVALYRFQALEPNELDFEVGDKIRILATLEDGWLEGSLKGRTGIFPYRFVKLCPDTRVEETMALPQEGSLARIPETSLDCLENTLGVEEQRHETSDHEAEEPDCIISEAPTSPLGHLTSEYDTDRNSYQDEDTAGGPPRSPGVEWEMPLATDSPTSDPTEVVNGISSQPQVPFHPNLQKSQYYSTVGGSHPHSEQYPDLLPLEARTRDYASLPPKRMYSQLKTLQKPVLPLYRGSSVSASRVVKPRQSSPQLHNLASYTKKHHTSSVYSISERLEMKPGPQAQGLVMEAATHSQGDGSTDLDSKLTQQLIEFEKSLAGPGTEPDKILRHFSIMDFNSEKDIVRGSSKLITEQELPERRKALRPPPPRPCTPVSTSPHLLVDQNLKPAPPLVVRPSRPAPLPPSAQQRTNAVSPKLLSRHRPTCETLEKEGPGHMGRSLDQTSPCPLVLVRIEEMERDLDMYSRAQEELNLMLEEKQDESSRAETLEDLKFCESNIESLNMELQQLREMTLLSSQSSSLVAPSGSVSAENPEQRMLEKRAKVIEELLQTERDYIRDLEMCIERIMVPMQQAQVPNIDFEGLFGNMQMVIKVSKQLLAALEISDAVGPVFLGHRDELEGTYKIYCQNHDEAIALLEIYEKDEKIQKHLQDSLADLKSLYNEWGCTNYINLGSFLIKPVQRVMRYPLLLMELLNSTPESHPDKVPLTNAVLAVKEINVNINEYKRRKDLVLKYRKGDEDSLMEKISKLNIHSIIKKSNRVSSHLKHLTGFAPQIKDEVFEETEKNFRMQERLIKSFIRDLSLYLQHIRESACVKVVAAVSMWDVCMERGHRDLEQFERVHRYISDQLFTNFKERTERLVISPLNQLLSMFTGPHKLVQKRFDKLLDFYNCTERAEKLKDKKTLEELQSARNNYEALNAQLLDELPKFHQYAQGLFTNCVHGYAEAHCDFVHQALEQLKPLLSLLKVAGREGNLIAIFHEEHSRVLQQLQVFTFFPESLPATKKPFERKTIDRQSARKPLLGLPSYMLQSEELRASLLARYPPEKLFQAERNFNAAQDLDVSLLEGDLVGVIKKKDPMGSQNRWLIDNGVTKGFVYSSFLKPYNPRRSHSDASVGSHSSTESEHGSSSPRFPRQNSGSTLTFNPSSMAVSFTSGSCQKQPQDASPPPKECDQGTLSASLNPSNSESSPSRCPSDPDSTSQPRSGDSADVARDVKQPTATPRSYRNFRHPEIVGYSVPGRNGQSQDLVKGCARTAQAPEDRSTEPDGSEAEGNQVYFAVYTFKARNPNELSVSANQKLKILEFKDVTGNTEWWLAEVNGKKGYVPSNYIRKTEYT

Variants of: B1
Test: co-immunoprecipitation (IP: GFP), quantified blot
Settings: with YFP-Tuba; HEK293T cells; co-expressed with HA-Cdc42(G12V); n = 4; parent: 1; read off a plot

ratio to parent | Variant
0.73 | chain 1 MARPQRTPARSPDSIVEVKSKFDAEFRRFALPRASVSGFQEFSRLLRAVHQIPGLDVLLGYTDAHGDLLPLTNDDSLHRALASGPPPLRLLVQKRAEADSSGLAFASNSLQRRKKGLLLRPVAPLRTRPPLLAALPQDFRQVSSVIDVDLLPETHRRVRLHKHGSDRPLGFYIRDGMSVRVAPQGLERVPGIFISRLVRGGLAESTGLLAVSDEILEVNGIEVAGKTLDQVTDMMVANSHNLIVTVKPANQRNNVVRGASGRLTGPPSAGPGPAEPDSDDDSSDLVIENRQPPSSNGLSQGPPCWDLHPGCRHPGTRSSLPSLDDQEQASSGWGSRIRGDGSGFSL [chain 1 I133A S134A]
